Laboratory results as given in the supplement of paper PMC12764529.
± gives the half width of the 95% confidence interval.

Columns and labels:
[1] = folding stability dG unfold from trypsin proteolysis; higher = more stable
Method in brief: (§1)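 Only designs with AlphaFold2 dimer inter-PAE above 15 were retained; each was a mini-protein under 80 residues with no cysteine, in a PA-tagged cDNA display construct. After digestion with trypsin and chymotrypsin and sequencing, K50 was inferred by Bayesian fitting of counts, and unfolding free energy was derived per protease or combined against a sequence-predicted unfolded-state K50 and a shared folded-state K50.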

[2] = folding stability dG unfold from chymotrypsin proteolysis; higher = more stable
Method in brief: as §1

[3] = folding stability dG unfold (combined trypsin and chymotrypsin); higher = more stable
Method in brief: as §1

| Sequence | folding stability dG unfold [1] [kcal/mol] | folding stability dG unfold [2] [kcal/mol] | folding stability dG unfold [3] [kcal/mol] |
| --- | --- | --- | --- |
| SMATVLSVSENPENPDTLSFEVELPDSPMSVTVPKDPKTGKYTMTVETPEATTTRDFTSLEDALAYIERASA [r9_366_JUSTAS] | 0.787 ± 0.021 | 0.758 ± 0.08 | 0.795 ± 0.034 |
| SAGFSIVEVEPDEDTYTITIEYTLPNGTVKTKDLPLKAKNPVLLEISENEITIYLPDTNEVVTLPVSLISAG [r14_947_JUSTAS] | 1.92 ± 0.087 | 1.74 ± 0.16 | 1.87 ± 0.29 |
| SAGGSAGDLELIGVFPFTLPDGRRITVPIFRDPSTGERYLFAETEGEEEDLTPAAIETALAVLERESAGGSA [r15_529_TrMRF] | 1.87 ± 0.051 | 2.09 ± 0.037 | 2.05 ± 0.084 |
| SAVINIEAWFPPGKSVEEAVDEAKNIIHQFGFEIDDVDVERDPNGWVRVDFTIKIKPPMPPEQRKKLQDSAG [r14_110_TrROS] | 1.25 ± 0.051 | 2.91 ± 0.091 | 2.45 ± 0.26 |
| SAGGSAGGSAGGSPNWKWVEMEITFNVPPGAKITIPNGIKLTVPPGDPVTIKIYIAVPPSAGGSAGGSAGGS [r4_232_TrROS] | 1.94 ± 0.12 | 2.96 ± 0.048 | 2.47 ± 0.31 |
| SAGGMKVVIYVKDPEKFLKAIEEIENIPLENVKFEPLEGDYYKYEFPNLEAVEELIKKGYDILKIEPSAGGS [r16_381_TrMRF] | 1.96 ± 0.09 | 2.57 ± 0.03 | 2.34 ± 0.083 |
| SAGGSAGGSGPELRPPDVPSTTVPLKVSPEEAKEILKELLGLPEDVEVPFGSIDPATGVITLVSAGGSAGGS [r12_815_JUSTAS] | 1.25 ± 0.091 | 0.881 ± 0.042 | 1.03 ± 0.12 |
| SAGGMKPGQPWHEIEVQREIDLPPGQISAEEIADLIAELFPGFRVEDFRIEFTGKKWRIDVTIYIPYSAGGS [r8_202_TrROS] | 2.56 ± 0.073 | 3.49 ± 0.039 | 3.14 ± 0.11 |
| SAGGSAGGSASMDTVVEVGPEILSTGLPIEKVTYDPNTGKTYIETPDKLYVIDSDGNITVDASAGGSAGGSA [r18_445_JUSTAS] | 1.72 ± 0.057 | 1.69 ± 0.025 | 1.72 ± 0.057 |
| MIIIPNATPEEVKKIILDAAKKGKEIEILIEVDPNLGPKVIKALKDLPYVKKVEPLPDGSIKVYIDKKNLKS [r1_324_TrMRF] | 1.71 ± 0.038 | 3.24 ± 0.048 | 2.89 ± 0.093 |
| SAGGSAGGSAKIEVEVTPLPGNKVLKIIKFENGEYIIEVFYFDPETGKIYSESEIISEEELLSAGGSAGGSA [r18_325_TrMRF] | 1.3 ± 0.039 | 2.36 ± 0.044 | 2.05 ± 0.13 |
| SAGGMTITVTVGPGKEEEAVEALKKKTGLKVELVETTPRPVRAPDGTVLEEVEEITIKITKPDPNLKESAGG [r13_943_JUSTAS] | -0.511 ± 0.21 | -0.269 ± 0.2 | -0.638 ± 0.45 |
| SAGNWKIEIKVKHRRTPDGYYRVTARIQIWDPKNGKPLREIPIEGPFDSPEQAERRARKKAKEILKALSAGG [r19_255_TrROS] | 2.97 ± 0.068 | 2.71 ± 0.044 | 2.74 ± 0.13 |
| SAGGAEEARKAGRPVLLTVTVTAPGSGKVSTLPLLVPADRPVDVEALVAALFPADWAVTVSVSPVGGSAGGS [r8_127_JUSTAS] | 1.32 ± 0.028 | 1.37 ± 0.051 | 1.27 ± 0.11 |
| SEEPVEERDIVVKPGEEVKLELPEEPETVRVYVFNEDGELIEEREFPPGATPEELEGLKLPPGAVVRIVRSA [r9_215_TrROS_Hall] | 1.32 ± 0.036 | 2.54 ± 0.029 | 2.2 ± 0.045 |
| SAGGSAGGSAGGSMKNVPVTVEGSSSVVPLPDGSPVTVTELTTTTLGENGEVSTSTTVVSSAGGSAGGSAGG [r11_817_JUSTAS] | -0.614 ± 0.07 | 1.34 ± 0.039 | 0.905 ± 0.083 |
| SAGGSAGGGPPGTTTTTISTPDGPVTVTVSPTSVTVTRPGSNETVTSSGSPTTTLEEIAAEIAASAGGSAGG [r6_317_JUSTAS] | 2.88 ± 0.14 | 1.58 ± 0.052 | 2.24 ± 0.11 |
| SAGGSAGGSAGPITVPPGAVLLSVEEEGERTRVTVRLPGSGVVETYTFEPGEPVVVELPGSAGGSAGGSAGG [r11_774_JUSTAS] | 2.27 ± 0.053 | 2.941 ± 0.016 | 2.75 ± 0.043 |
| SAGKKTVTIVIRLKEPGERLSAEELAALLRELGLPPGAKVTVERRPDGYLVVTVEVDGKTVTIVIELEDSAG [r5_144_TrROS_Hall] | 2.04 ± 0.04 | 2.516 ± 0.019 | 2.34 ± 0.056 |
| SAGGETVTLTLKVETLEELEALAKKLAEETGEEVTIEVIGPDGKKYTFKTPEELKNIPGATVKITIKKSAGG [r13_620_TrROS_Hall] | 2.19 ± 0.13 | 2.96 ± 0.041 | 2.87 ± 0.15 |
| SAGGPWHEQKHEITDPDDGKPIKISHTHYPDGYPRVRIELNNGKKIEFMVPPNGPPTPDQLLDAIKQFSAGG [r13_492_TrROS] | 0.317 ± 0.092 | 0.452 ± 0.16 | 0.478 ± 0.11 |

| Sequence | folding stability dG unfold [1] [kcal/mol] | folding stability dG unfold [2] [kcal/mol] | folding stability dG unfold [3] [kcal/mol] |
| --- | --- | --- | --- |
| SAGGSAGGSALKPNETATIRILTTAPDGKPYVLVVEVRVLPDGGVEVLGYKLVTLSDLEKNSAGGSAGGSAG [r3_212_TrMRF] | 2.53 ± 0.11 | 3.74 ± 0.082 | 3.32 ± 0.11 |
| SAGGSPARPVLVTITLPDGEEVTRRMTLEEIERLVAKDPNVKVTIELPDGSVYTVDPNTGTITKAPSAGGSA [r2_222_JUSTAS] | 2.84 ± 0.075 | 2.49 ± 0.026 | 2.63 ± 0.14 |
| SAGGSAGGSASMKEVTILVKKKLPGGEEEESVTTVTLNPNEIDKVKEEFKKKGWEVVKVVSSAGGSAGGSAG [r3_453_JUSTAS] | 1.23 ± 0.017 | 1.74 ± 0.034 | 1.56 ± 0.045 |
| SAGGSAGGSAGGAEKFKVLSVSWDLGKGKRYGVLEVERPDGPLLTIVVPLSYPDKLKELASAGGSAGGSAGG [r7_365_TrMRF] | 0.395 ± 0.14 | 1.29 ± 0.17 | 1.02 ± 0.22 |
| SMKPPVKVRIRIYNPETGEEIATIEIEFLPDGTVKVTIEIDGKKYEIEMSLDELLEALKKLPFKIVEIEPSA [r9_470_TrROS_Hall] | 3.72 ± 0.12 | 3.35 ± 0.064 | 3.57 ± 0.1 |
| SAGGSAGGSKMLLVKVYIEETKEEIVIEVPEGMTLEEIAERLRELGYKIKKIEVYELPPPPEESAGGSAGGS [r12_955_TrROS_Hall] | 3.82 ± 0.18 | 4.25 ± 0.078 | 4.11 ± 0.3 |
| SAGGSAGGSLKPFPIEDITVQPRRNPDGNRYYQVSIRIKGPGRPINIPFPMDNPKKFLEDIIKSAGGSAGGS [r20_238_TrROS] | 0.519 ± 0.081 | 0.143 ± 0.12 | 0.285 ± 0.17 |
| SAGGGPPSSMVKKTYTVTGTDPDALAAAVRAAIAAAHPDVEITEVTVSRDPSSDRYTVTVDVLSSVASAGGS [r8_120_JUSTAS] | 2.22 ± 0.036 | 2.638 ± 0.017 | 2.51 ± 0.051 |
| SMMYLVKIKVRNKETGELVEEIELVVESEEEAEKIAEELAEELGLEVEVEVKRISPEELEDPEILKELLESA [r9_864_TrROS_Hall] | 2.77 ± 0.13 | 3.53 ± 0.088 | 3.27 ± 0.23 |
| SAGGSAGGSAGGSKIENIKDIERNPNPDGHYMITIPNGWQIVVRMDKNGKMEIEIVPLKSAGGSAGGSAGGS [r4_177_TrROS] | 1.87 ± 0.076 | 1.88 ± 0.039 | 1.82 ± 0.15 |
| SAGGMMKIKITIINENGETLTIEIEVPEEDLEEAIKALEDELKKKGYEIESIERVNGKITITVRIKPSAGGS [r16_662_TrROS_Hall] | 4.03 ± 0.16 | 4.06 ± 0.06 | 4.12 ± 0.12 |
| SAPLSEEEARQLLEEVAEELERETGASYRVELFRDPATGRWFGRIELPDGRVYTVTYDPATGEVTVTVEASA [r9_9_JUSTAS] | 4.25 ± 0.1 | 5.62 ± 0.069 | 5.62 ± 0.11 |
| SAGGSAGGGHMPVTKTVQLPGRTVTLTYYPEKGTVKITFPEDGTEKTVPISPSETIEDVIKKLSSAGGSAGG [r6_166_JUSTAS] | 2.32 ± 0.069 | 2.74 ± 0.036 | 2.6 ± 0.061 |
| SAGGSAGGSAGMLWIHDPESGTLVMLHPKPDGEVNVQVWQFDPDNGKPEIKTVPADNIEASAGGSAGGSAGG [r11_285_TrROS] | 0.376 ± 0.046 | 1.22 ± 0.18 | 0.924 ± 0.091 |
| SAGGVEEAREALEEAGFEIVDVDEETGTVTVRNEETEETITVRVEAPAPPPVEVEEEVEVEEEEEEESAGGS [r16_197_TrROS_Hall] | 1.14 ± 0.089 | 1.48 ± 0.12 | 1.34 ± 0.096 |
| SAGGSAPVTLETEFFGENGLLVRTEAVVDPATGEVTVRTETFPVITGPADNPDVVKKLLEEAGIDASAGGSA [r2_304_TrMRF] | 0.645 ± 0.059 | 0.817 ± 0.094 | 0.887 ± 0.23 |
| SMTITIERPVPPELTDRPLSLELPLPNGSTVSVKVETSPTTATVTITTNDPSLEAEVKARVEELLARLLASA [r9_790_JUSTAS] | 2.56 ± 0.094 | 2.058 ± 0.02 | 2.27 ± 0.1 |
| SITITRDPDYYTLRIPPGMDSVEEVQDFLKELGFKLPPGVKDIQVEEVDKENNQVTITIQLDDPEAIQDLSA [r9_820_TrROS] | 0.601 ± 0.085 | 0.836 ± 0.28 | 0.798 ± 0.2 |
| SAGGSAGGSAGGGIVIEGDIESIEVEKNPDTDYYLVTVRFKSTDKPYTFVFKKDEKLDVSAGGSAGGSAGGS [r10_819_TrMRF] | 1.49 ± 0.036 | 2.16 ± 0.21 | 1.77 ± 0.23 |
| SAGIYIPMDMTIDELVDILQKFGIRSVTTERMPEPGMYKATLKFPDLTIEIWYHPNWMHIEIVPPGEPISAG [r5_899_TrROS] | 2.77 ± 0.12 | 4.18 ± 0.07 | 3.85 ± 0.23 |
| SAGKPKVIFIEGMTKEQLRAAIDEAKKKLKPGDIIVVRSKEAADALKELLPDLTVYLVDEETKEVKKLPSAG [r5_391_TrROS_Hall] | 1.91 ± 0.14 | 2.1 ± 0.067 | 2.08 ± 0.14 |
